Data set [1] has as its system T1, fluorogenic MMP peptide substrate [Dabcyl-Gaba-Pro-Gln-Gly-Leu-Glu(EDANS)-Ala-Lys-NH2].
T1 sequence: XXPQGLXAK

The target in data set [2] is T2, Sortase A substrate Dnp-LPETG-(K-FITC)-NH2.
T2 chain: LPETGK

Data set [3] deals with T3, fluorogenic MMP peptide substrate [Dabcyl-Gaba-Pro-Gln-Gly-Leu-Glu(EDANS)-Ala-Lys-NH2] (not fully specified).
T3 chain: XXPQGLXAK

On to MMP-9, for which, in data set [1], the EDANS fluorescence intensity result was “The fluorescence intensity of EDANS cleaved by MMP-9 bound with MNP-MMP9Ab”.

B1: Sortase A enzyme (protein)
chain: QAKPQIPKDKSKVAGYIEIPDADIKEPVYPGPATPEQLNRGVSFAEENESLDDQNISIAGHTFIDRPNYQFTNLKAAKKGSMVYFKVGNETRKYKMTSIRDVKPTDVGVLDEQKGKDKQLTLITCDDYNEKTGVWEKRKIFVATEVK
On to B1, for which, in data set [2], the “FITC fluorescence emission (1 µg/mL Sortase A, 30 min)” value is listed as “the emission of FITC after the Sortase A substrate cleaved by Sortase A enzyme”; the “FITC fluorescence emission at different contact times” value is “the longer the interaction between Sortase A enzyme and Sortase A substrate the higher emission of the FITC detected ... only until 30 min contact time”; the “FITC fluorescence emission, S. aureus bacterial supernatant (1 h inoculation)” value is “about 47.26 a.u”; the “FITC fluorescence intensity, 1×10^-4 µg/mL Sortase A in buffer solution” value was 100.2±22.7 a.u. Moreover, in data set [2], the “FITC fluorescence intensity, wound fluid spiked with 1×10^-4 µg/mL Sortase A, 30 min” value is on record as “about 82.34 a.u”; the “FITC fluorescence signal at different Sortase A concentrations” value is on record as “this sensing platform still had an obvious signal down to fg/mL of Sortase A concentration”; the “increase of FITC fluorescence intensity on spiking the bacterial supernatant with Sortase A enzyme” value was “increased the fluorescence intensity about 112.19 a.u”.

B2: Recombinant human MMP-1 (R&D Systems), activated with APMA (protein)
chain: FVLTEGNPRWEQTHLTYRIENYTPDLPRADVDHAIEKAFQLWSNVTPLTFTKVSEGQADIMISFVRGDHRDNSPFDGPGGNLAHAFQPGPGIGGDAHFDEDERWTNNFREYNLHRVAAHELGHSLGLSHSTDIGALMYPSYTFSGDVQLAQDDIDGIQAIYGRSQNPVQPIGPQTPKACDSKLTFDAITTIRGEVMFFKDRFYMRTNPFYPEVELNFISVFWPQLPNGLEAAYEFADRDEVRFFKGNKYWAVQGQNVLHGYPKDIYSSFGFPRTVKHIDAALSEENTGKTYFFVANKYWRYDEYKRSMDPGYPKMIAHDFPGIGHKVDAVFMKDGFFYFFHGTRQYKFDPKTKRILTLQKANSWFNCRKN
Turning to B2, in data set [3], the “EDANS emission at 446.5 nm from peptide-functionalised pSiRM” value is given as “emission at 446.5 nm was observed”; the “EDANS emission under confocal microscope (microcontact-printed peptide)” value is listed as “The lighter colour (blue) is the colour of EDANS emission confirming the cleavage of the MMP substrate”; the “EDANS fluorescence intensity at different incubation times (1.2×10^-7 M MMP-1)” value is “After 5 min of incubation, a significant fluorescence emission indicating the presence of MMP-1 was already detectable ... then plateaued at 15 min incubation time”; the “limit of detection (EDANS fluorescence after 15 min incubation)” value is given as “the calculated LOD was 7.5×10^-19 M”. For the same molecule, in data set [3], the “shift of the resonance cavity dip (IRS)” value is “A small blue shift (Δλ=0.5 nm) observed by IRS after incubation with MMP-1”.

The values above are taken from patent US10234390.
